Laboratory results reported in paper PMC3391209, “A Lon-Like Protease with No ATP-Powered Unfolding Activity” (PLoS ONE, 2012).
Blank lines part the entries; values can stand above or below the compound they belong to.

Columns and labels:
EcLonA = target: T1, EcLonA (Escherichia coli, UniProt P0A9M0); test: […]-NMR of phosphate release; colorimetric ATPase assay; type: biochemical; conditions: 37 °C, 50 mM Tris-HCl pH 8.0, 10 mM MgCl2, 10 mM ATP (NMR); positive control
T1 construct: gene lon; recombinant, expressed and purified as described previously
T1 sequence (P0A9M0 2-784): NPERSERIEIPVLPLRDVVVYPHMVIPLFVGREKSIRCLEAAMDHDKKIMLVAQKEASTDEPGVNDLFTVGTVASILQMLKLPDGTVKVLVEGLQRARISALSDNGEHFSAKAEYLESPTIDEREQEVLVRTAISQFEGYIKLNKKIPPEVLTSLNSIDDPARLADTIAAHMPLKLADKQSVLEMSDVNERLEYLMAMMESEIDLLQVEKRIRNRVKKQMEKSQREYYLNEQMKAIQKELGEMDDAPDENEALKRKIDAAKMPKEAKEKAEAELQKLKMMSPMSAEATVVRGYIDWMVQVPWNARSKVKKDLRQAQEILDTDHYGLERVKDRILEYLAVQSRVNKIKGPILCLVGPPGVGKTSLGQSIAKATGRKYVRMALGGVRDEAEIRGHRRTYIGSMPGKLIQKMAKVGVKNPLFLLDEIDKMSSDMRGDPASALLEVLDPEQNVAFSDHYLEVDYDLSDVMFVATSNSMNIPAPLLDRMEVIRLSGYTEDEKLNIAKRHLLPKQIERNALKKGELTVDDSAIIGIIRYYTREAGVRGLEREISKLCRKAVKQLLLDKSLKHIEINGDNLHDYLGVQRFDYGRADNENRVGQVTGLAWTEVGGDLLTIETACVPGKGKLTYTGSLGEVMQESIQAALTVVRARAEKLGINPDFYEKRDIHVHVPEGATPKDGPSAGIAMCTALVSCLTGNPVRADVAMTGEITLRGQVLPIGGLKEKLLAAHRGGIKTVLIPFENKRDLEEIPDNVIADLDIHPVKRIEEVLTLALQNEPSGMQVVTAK

MtaLonC = target: T2, MtaLonC (Meiothermus taiwanensis, UniProt C9DRU9); test: isothermal titration calorimetry, one-site fit; type: binding
T2 construct: gene lon_2; full-length, 719 residues, C-terminal His tag (pET21a), expressed in E. coli BL21(DE3); homohexamer, monomer 79 kDa
T2 sequence (C9DRU9 1-719): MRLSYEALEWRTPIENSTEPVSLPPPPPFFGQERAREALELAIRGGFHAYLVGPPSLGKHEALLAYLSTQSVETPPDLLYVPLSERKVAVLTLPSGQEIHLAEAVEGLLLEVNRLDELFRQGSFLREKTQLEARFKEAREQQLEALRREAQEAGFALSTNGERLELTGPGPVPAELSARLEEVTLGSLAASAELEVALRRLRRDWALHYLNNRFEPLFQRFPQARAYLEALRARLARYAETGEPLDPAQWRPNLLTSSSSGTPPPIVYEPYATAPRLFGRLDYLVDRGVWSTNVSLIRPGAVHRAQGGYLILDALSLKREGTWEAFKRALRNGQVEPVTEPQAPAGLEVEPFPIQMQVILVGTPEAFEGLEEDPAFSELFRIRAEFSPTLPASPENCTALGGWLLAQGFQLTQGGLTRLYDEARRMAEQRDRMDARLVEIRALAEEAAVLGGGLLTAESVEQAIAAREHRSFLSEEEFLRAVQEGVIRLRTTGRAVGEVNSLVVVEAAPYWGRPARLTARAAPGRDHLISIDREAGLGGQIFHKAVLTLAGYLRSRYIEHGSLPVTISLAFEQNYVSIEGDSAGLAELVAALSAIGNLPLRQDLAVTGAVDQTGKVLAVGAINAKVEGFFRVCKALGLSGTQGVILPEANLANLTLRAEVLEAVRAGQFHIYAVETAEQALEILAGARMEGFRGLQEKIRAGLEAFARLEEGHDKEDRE

[1] = target: Lon-like protease MtaLonC from Meiothermus taiwanensis WR-220 (Meiothermus taiwanensis WR-220); test: SEC; Superose 6; 1 mg/mL, pH 5-8; hexamer formation not dependent on Mg2+ or ATP; aggregates in the void volume when concentrated
[2] = target: Lon-like protease MtaLonC from Meiothermus taiwanensis WR-220 (Meiothermus taiwanensis WR-220); test: negative-stain electron microscopy; about 50 µg/ml MtaLonC, 2% uranyl acetate, class averages; hexamer and void-volume fractions from Superose 6
[3] = target: Lon-like protease MtaLonC from Meiothermus taiwanensis WR-220 (Meiothermus taiwanensis WR-220); test: AUC; sedimentation equilibrium (4,000-6,000 r.p.m.) and sedimentation velocity (20,000 rpm), 20°C, 20 mM sodium citrate pH 5.5, 100 mM NaCl, 1 mM DTT, 7.8 µM protein

Compound: Nc1ncnc2c1ncn2[C@@H]1O[C@H](COP(=O)(O)OP(=O)(O)OP(=O)(O)O)[C@@H](O)[C@H]1O [ATP]
31P-NMR of phosphate release; colorimetric ATPase assay (EcLonA): incubation of an excess amount of ATP with EcLonA resulted in hydrolysis of ATP

Compound: Nc1ncnc2c1ncn2[C@@H]1O[C@H](CO[P@](=O)(O)O[P@](=O)(O)O[P@@](=O)(O)S)[C@@H](O)[C@H]1O [ATPγS]
Kd (MtaLonC): 7.8 µM

stoichiometry N [1]: 6
stoichiometry N [2]: 6
stoichiometry N [3]: 6
Compound: Lon-like protease MtaLonC from Meiothermus taiwanensis WR-220 (enzyme)
